T1: SNTG1, Q9NSN8
T1 sequence (Q9NSN8 52-150, limits assumed, looked up): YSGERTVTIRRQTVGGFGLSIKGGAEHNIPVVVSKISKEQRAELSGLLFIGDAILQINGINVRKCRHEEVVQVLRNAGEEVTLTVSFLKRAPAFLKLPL

T2: APBA1_1, Q02410
T2 sequence (Q02410 651-752, limits assumed, looked up): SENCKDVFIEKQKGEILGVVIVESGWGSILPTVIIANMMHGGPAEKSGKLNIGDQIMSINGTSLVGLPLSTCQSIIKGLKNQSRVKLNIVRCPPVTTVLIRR

T3: NHERF3_3, Q5T2W1
T3 sequence (Q5T2W1 238-333, limits assumed, looked up): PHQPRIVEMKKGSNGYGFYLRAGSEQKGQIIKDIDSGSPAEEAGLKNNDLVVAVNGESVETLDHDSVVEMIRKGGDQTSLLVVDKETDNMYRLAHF

T4: GRIP1_2, Q9Y3R0
T4 sequence (Q9Y3R0 145-248, limits assumed, looked up): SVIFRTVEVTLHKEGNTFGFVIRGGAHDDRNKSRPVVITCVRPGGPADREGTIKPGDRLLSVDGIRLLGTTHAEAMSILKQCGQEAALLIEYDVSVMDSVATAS

T5: DLG3_1, Q92796
T5 sequence (Q92796 125-227, limits assumed, looked up): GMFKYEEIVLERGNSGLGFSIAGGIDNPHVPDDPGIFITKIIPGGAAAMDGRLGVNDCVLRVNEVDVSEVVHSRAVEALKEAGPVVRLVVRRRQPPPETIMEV

T6: TX1BP3, O14907
T6 sequence (O14907 10-122, limits assumed, looked up): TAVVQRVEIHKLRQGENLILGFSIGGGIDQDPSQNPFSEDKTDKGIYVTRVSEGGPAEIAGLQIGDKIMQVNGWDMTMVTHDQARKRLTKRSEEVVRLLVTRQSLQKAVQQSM

T7: MPP2, Q14168
T7 sequence (Q14168 180-250, limits assumed, looked up): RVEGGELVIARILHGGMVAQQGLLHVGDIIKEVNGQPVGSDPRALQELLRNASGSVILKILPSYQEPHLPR

T8: DLG3_3, Q92796
T8 sequence (Q92796 374-475, limits assumed, looked up): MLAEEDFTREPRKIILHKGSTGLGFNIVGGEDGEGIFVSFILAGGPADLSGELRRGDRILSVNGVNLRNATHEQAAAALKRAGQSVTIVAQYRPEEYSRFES

T9: DLG3_2, Q92796
T9 sequence (Q92796 221-321, limits assumed, looked up): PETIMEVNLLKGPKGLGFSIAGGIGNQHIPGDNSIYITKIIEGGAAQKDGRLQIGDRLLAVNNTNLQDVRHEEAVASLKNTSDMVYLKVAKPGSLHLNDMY

T10: LIN7B, Q9HAP6
T10 sequence (Q9HAP6 88-185, limits assumed, looked up): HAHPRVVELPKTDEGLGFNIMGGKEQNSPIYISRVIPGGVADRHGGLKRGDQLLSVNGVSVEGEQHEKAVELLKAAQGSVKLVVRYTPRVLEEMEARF

T11: TJP3_3, O95049
T11 sequence (O95049 375-456, limits assumed, looked up): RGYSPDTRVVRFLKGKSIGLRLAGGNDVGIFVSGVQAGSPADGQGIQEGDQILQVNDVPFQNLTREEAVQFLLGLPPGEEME

T12: PTPN13_1, Q12923
T12 sequence (Q12923 1088-1188, limits assumed, looked up): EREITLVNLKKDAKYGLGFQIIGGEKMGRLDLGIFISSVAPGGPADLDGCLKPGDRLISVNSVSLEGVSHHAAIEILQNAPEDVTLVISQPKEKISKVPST


Tests used:
Assay in all cases: holdup assay
Set-up in all cases: key: below the threshold = too weak to quantify, mostly under pKd 3.1 to 4
Conditions in all cases: plain residues with an end cap or a label only (N-terminal biotin on a linker: ttds)
[1] = biological target: CASK, O14936
[2] = biological target: Inadl_3, Q8NI35
[3] = biological target: T1, SNTG1, Q9NSN8
[4] = biological target: T2, APBA1_1, Q02410
[5] = biological target: GIPC2, Q8TF65
[6] = biological target: LNX1_2, Q8TBB1
[7] = biological target: T3, NHERF3_3, Q5T2W1
[8] = biological target: LNX1_1, Q8TBB1
[9] = biological target: T4, GRIP1_2, Q9Y3R0
[10] = biological target: T5, DLG3_1, Q92796
[11] = biological target: MAGI1_1, Q96QZ7
[12] = biological target: DLG4_2, P78352
[13] = biological target: NHERF4_4, Q86UT5
[14] = biological target: MAGI2_4, Q86UL8
[15] = biological target: MAGI2_6, Q86UL8
[16] = biological target: T6, TX1BP3, O14907
[17] = biological target: T7, MPP2, Q14168
[18] = biological target: FRMPD2_3, Q68DX3
[19] = biological target: Inadl_9, Q8NI35
[20] = biological target: TJP1_3, Q07157
[21] = biological target: T8, DLG3_3, Q92796
[22] = biological target: T9, DLG3_2, Q92796
[23] = biological target: T10, LIN7B, Q9HAP6
[24] = biological target: Inadl_8, Q8NI35
[25] = biological target: T11, TJP3_3, O95049
[26] = biological target: T12, PTPN13_1, Q12923

GIPC2, Q8TF65, sequence (Q8TF65 112-203): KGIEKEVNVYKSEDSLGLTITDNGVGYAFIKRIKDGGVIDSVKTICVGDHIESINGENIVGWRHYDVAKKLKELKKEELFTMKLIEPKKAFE
CASK, O14936, sequence (O14936 487-570): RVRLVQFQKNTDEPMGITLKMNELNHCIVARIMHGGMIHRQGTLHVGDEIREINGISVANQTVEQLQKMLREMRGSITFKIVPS
LNX1_1, Q8TBB1, sequence (Q8TBB1 261-371): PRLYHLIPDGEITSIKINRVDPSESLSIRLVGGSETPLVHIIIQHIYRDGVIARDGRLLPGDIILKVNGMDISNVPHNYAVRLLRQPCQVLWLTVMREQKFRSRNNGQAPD
LNX1_2, Q8TBB1, sequence (Q8TBB1 371-470): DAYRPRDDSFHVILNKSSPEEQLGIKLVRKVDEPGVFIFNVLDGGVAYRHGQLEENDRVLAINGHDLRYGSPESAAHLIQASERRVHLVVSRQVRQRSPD
TJP1_3, Q07157, sequence (Q07157 416-512): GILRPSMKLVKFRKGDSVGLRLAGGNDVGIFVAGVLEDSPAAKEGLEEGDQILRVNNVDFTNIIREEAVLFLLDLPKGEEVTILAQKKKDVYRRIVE
NHERF4_4, Q86UT5, sequence (Q86UT5 464-550): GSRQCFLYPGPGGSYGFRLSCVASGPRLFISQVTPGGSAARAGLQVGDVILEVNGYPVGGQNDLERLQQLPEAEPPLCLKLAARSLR
Inadl_8, Q8NI35, sequence (Q8NI35 1425-1530): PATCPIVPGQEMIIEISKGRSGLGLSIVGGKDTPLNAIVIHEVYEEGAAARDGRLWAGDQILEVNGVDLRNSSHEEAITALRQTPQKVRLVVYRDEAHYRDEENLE
MAGI1_1, Q96QZ7, sequence (Q96QZ7 1-106): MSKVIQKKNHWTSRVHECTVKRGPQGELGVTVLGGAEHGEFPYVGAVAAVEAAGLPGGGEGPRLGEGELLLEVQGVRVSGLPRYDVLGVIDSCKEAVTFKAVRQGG
MAGI2_6, Q86UL8, sequence (Q86UL8 1141-1229): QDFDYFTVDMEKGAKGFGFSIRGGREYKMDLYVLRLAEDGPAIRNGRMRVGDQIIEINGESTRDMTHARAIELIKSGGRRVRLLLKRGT
FRMPD2_3, Q68DX3, sequence (Q68DX3 1073-1166): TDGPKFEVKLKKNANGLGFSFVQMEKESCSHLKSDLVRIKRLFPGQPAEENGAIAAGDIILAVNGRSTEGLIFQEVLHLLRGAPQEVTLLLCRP
Inadl_9, Q8NI35, sequence (Q8NI35 1530-1615): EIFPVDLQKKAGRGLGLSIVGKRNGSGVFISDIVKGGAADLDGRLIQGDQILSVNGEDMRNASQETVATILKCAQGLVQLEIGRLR
Inadl_3, Q8NI35, sequence (Q8NI35 359-469): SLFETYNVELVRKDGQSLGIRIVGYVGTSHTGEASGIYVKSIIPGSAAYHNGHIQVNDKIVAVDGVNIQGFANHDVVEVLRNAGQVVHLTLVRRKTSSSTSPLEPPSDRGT
DLG4_2, P78352, sequence (P78352 155-259): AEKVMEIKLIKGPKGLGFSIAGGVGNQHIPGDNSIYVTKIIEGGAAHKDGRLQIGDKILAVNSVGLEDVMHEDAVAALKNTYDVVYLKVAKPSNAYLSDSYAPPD
MAGI2_4, Q86UL8, sequence (Q86UL8 772-865): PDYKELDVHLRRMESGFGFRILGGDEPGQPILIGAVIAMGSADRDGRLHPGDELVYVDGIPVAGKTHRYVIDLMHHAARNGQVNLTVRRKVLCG

pKd [1] | pKd [2] | pKd [3] | pKd [4] | pKd [5] | pKd [6] | pKd [7] | pKd [8] | pKd [9] | pKd [10] | pKd [11] | pKd [12] | pKd [13] | pKd [14] | pKd [15] | pKd [16] | pKd [17] | pKd [18] | pKd [19] | pKd [20] | Binder | other results
below the threshold | below the threshold | 3.66 | below the threshold | below the threshold | 3.61 | below the threshold | 3.6 | below the threshold | below the threshold | below the threshold | 4.12 | below the threshold | 3.74 | below the threshold | 3.97 | below the threshold | below the threshold | below the threshold | below the threshold | QPGTPTRTAV [MAP2K2, P36507] | pKd [21]: below the threshold; pKd [22]: 3.93; pKd [23]: below the threshold; pKd [24]: 3.78; pKd [25]: 3.57; pKd [26]: 3.66
below the threshold | below the threshold | below the threshold | below the threshold | below the threshold | below the threshold | 3.79 | below the threshold | below the threshold | below the threshold | below the threshold | below the threshold | below the threshold | below the threshold | below the threshold | below the threshold | below the threshold | below the threshold | below the threshold | below the threshold | TEEEVQDTRL [CFTR, P13569] | pKd [21]: below the threshold; pKd [22]: below the threshold; pKd [23]: below the threshold; pKd [24]: below the threshold; pKd [25]: below the threshold; pKd [26]: below the threshold

— article PMC9482650, “Quantitative fragmentomics allow affinity mapping of interactomes” (Nature Communications, 2022)
